According to patent publication US20220088221A1, “SELF-ASSEMBLED PEPTIDE NANOPARTICLE AND USE THEREOF” (THE METHODIST HOSPITAL, priority 2019, published 2022):
Entries after “also recorded” stand apart in the source; their conditions may differ. Like-named read-outs stand apart in the source and are kept apart here.

Assay: Self-assembly and size of CPP-peptide/TLR ligand nanoparticles (DLS, AFM)
Assay type: physicochemical
Experimental: FIG. 3A-1, FIG. 3A-2, FIG. 3B-1, FIG. 3B-2, FIG. 3C-1 and FIG. 3C-2 show self-assembled nanoparticles of TAT-TRP2 with CpG and MPLA (CM for short). […] AFM analysis indicates the size of cross section of the nanoparticle;
Grey bars indicate unstable/polydispersed complex with large PDI (PDI>0.5);
While both CPP-antigen peptide (10 mM) and CpG (10 mM) were soluble in PBS, but once mixed (1:1), precipitations or aggregates were observed. These aggregates were round nanoparticles, with a diameter of […] in size. The self-assembly was believed to occur through electric interaction of positively charged CPPs with negatively charged molecules, as well as hydrophobic interaction between the peptides themselves and monophosphoryl lipid A (MPLA).
MPLA and poly I:C were completely dissolved in sterile ultrapure water at a concentration of 1 mg/mL. To prepare the TAT-peptide vaccine nanoparticles, CpG, MPLA, and poly I:C of indicated volume (shown in Table 3) were mix thoroughly in ultrapure water or buffer by intensive vortex.
Self-assembly of the TAT-peptide nanoparticles was triggered by dropwise addition of TAT-peptide with ultrasonication in iced water bath within 1 min. […] The hydrophobic C-terminus of TRP2 peptide forms a hydrophobic core together with the MPLA via hydrophobic interactions.
Grey bars indicate unstable/polydispersed complexes with large PDI (PDI>0.5).

Row | Sequence | complex / nanoparticle formation with CpG and MPLA (AFM) | complex / nanoparticle formation with CpG and MPLA (AFM) (listed as TRP2)
1 | SYVDFFVWL [TRP2 peptide] | failed to form complex with CpG-MPLA and formed long fibers; also recorded: failed to form complexes | could not form a particle
2 | YGRKKRRQRRRSYVDFFVWL [TAT-TRP2] | formed tight complexes | 
